Ends that are not written are not given here.
Tests used:
Format in all cases: binding
[1] = target: T1, A1PI (Homo sapiens, UniProt P01009); assay: Purification of A1PI from Effluent II+III on peptide column, A1PI mass balance; conditions: 1 ml Eff. II+III, 4° C.
T1 construct: Human plasma is currently the only approved source of therapeutic AlPI
In short: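 First, 1 ml of the ethanolic Cohn intermediate (20% ethanol, ~1 mg/ml A1PI) is injected and held for a 10 min residence time. Columns are then eluted stepwise at a constant 865 μl/min with 1M NaCl, 3M NaCl and finally 2% acetic acid, all at 4° C.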

[2] = target: T1, A1PI; assay: A1PI purification from 5 mg hSA + 1 mg A1PI on peptide column, A1PI mass balance; conditions: for Mass AlPI Eluted in Acid Eluate: nephelometry; for Mass Protein per Eluate Fraction, 1M NaCl / Mass Protein per Eluate Fraction, 2% Ac. Acid / Mass Protein per Eluate Fraction, 3M NaCl / Mass Protein per Eluate Fraction, Flow / Percent Eluted by Fraction, 1M NaCl / Percent Eluted by Fraction, 2% Ac. Acid / Percent Eluted by Fraction, 3M NaCl / Percent Eluted by Fraction, Flow / Mass Protein per Eluate Fraction, 2% Acetic Acid / Percent Eluted by Fraction, 2% Acetic Acid: A1PI, 5 mg hSA + 1 mg A1PI; for Mass Protein per Eluate Fraction, 1M NaCl / Mass Protein per Eluate Fraction, 2% Ac. Acid / Mass Protein per Eluate Fraction, 3M NaCl / Mass Protein per Eluate Fraction, Flow / Mass Protein per Eluate Fraction, 2% Acetic Acid: * Below detection limit
In short: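 Mass balance by immunonephelometry of fractions from step elutions (1M NaCl, 3M NaCl, 2% acetic acid, neutralised with Tris) at 865 μl/min. Sample was a mixture of 1 mg A1PI and 5 mg hSA held 10 min on peptide-derivatised Toyopearl columns (0.1 mmole/g) at 4 °C or 20 °C.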

[3] = target: T1, A1PI; assay: A1PI yield from dialyzed (aqueous) Effluent II+III; conditions: 4° C.
In short: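 Effluent II+III was dialyzed at 4° C against equilibration buffer (15,000 MWCO) to remove ethanol. It was then applied under the same binding conditions as neat feed, and A1PI was tracked by nephelometry in the 1M NaCl and acid eluates.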

[4] = A1PI, * as in Tables 4, 5 (below detection limit)
[5] = Table 11, * Below detection limit
[6] = 4° C., relative to total eluted
[7] = 20° C., relative to total eluted
[8] = Table 10, 4° C., relative to total loaded
[9] = Table 10, 20° C., relative to total loaded
[10] = 1 ml dialyzed Eff. II+III (ethanol removed)
[11] = A1PI, 1 ml dialyzed Eff. II+III

T1 sequence (P01009 25-418): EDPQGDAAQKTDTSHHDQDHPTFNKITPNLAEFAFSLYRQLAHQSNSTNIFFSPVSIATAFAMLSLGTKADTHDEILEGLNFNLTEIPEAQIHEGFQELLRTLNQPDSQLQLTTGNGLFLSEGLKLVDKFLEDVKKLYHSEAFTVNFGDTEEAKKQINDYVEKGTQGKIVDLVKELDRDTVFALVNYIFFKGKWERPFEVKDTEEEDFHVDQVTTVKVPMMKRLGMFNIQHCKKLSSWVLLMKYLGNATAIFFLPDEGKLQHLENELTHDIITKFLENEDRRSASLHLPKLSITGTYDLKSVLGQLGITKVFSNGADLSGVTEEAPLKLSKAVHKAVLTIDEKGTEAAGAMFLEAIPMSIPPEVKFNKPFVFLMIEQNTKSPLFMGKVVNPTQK

VIWLVR
Percent Eluted by Fraction, 1M NaCl ([1]; A1PI): 9% | Percent Eluted by Fraction, 2% Acetic Acid ([1]; A1PI): 43% | Percent Eluted by Fraction, 3M NaCl ([1]; A1PI): 0% | Percent Eluted by Fraction, Flow ([1]; A1PI): 48% | Mass Protein per Eluate Fraction, 1M NaCl [1, 4]: 0.10 mg | Mass Protein per Eluate Fraction, 2% Acetic Acid [1, 4]: 0.51 mg | Mass Protein per Eluate Fraction, Flow [1, 4]: 0.58 mg | Mass A1PI per Eluate Fraction, 1M NaCl [1, 5]: 0.10 mg | Mass A1PI per Eluate Fraction, 2% Acetic Acid [1, 5]: 0.51 mg | Mass A1PI per Eluate Fraction, Flowthrough [1, 5]: 0.58 mg | Percent Eluted by Fraction, 1M NaCl ([1]; Table 11, A1PI): 9% | Percent Eluted by Fraction, 2% Acetic Acid ([1]; Table 11, A1PI): 43% | Percent Eluted by Fraction, Flowthrough ([1]; Table 11, A1PI): 48% | Mass AlPI Eluted in Acid Eluate ([2]; 250 μg AlPI injected with 5 mg hSA, 20° C.): 0.18 mg | Mass AlPI Eluted in Acid Eluate ([2]; 500 μg AlPI injected with 5 mg hSA, 20° C.): 0.48 mg | Mass AlPI Eluted in Acid Eluate ([2]; 1000 μg AlPI injected with 5 mg hSA, 20° C.): 0.70 mg | Mass Protein per Eluate Fraction, 1M NaCl ([2]; 4° C.): 0.20 mg | Mass Protein per Eluate Fraction, 2% Ac. Acid ([2]; 4° C.): 0.27 mg | Mass Protein per Eluate Fraction, 3M NaCl ([2]; 4° C.): 0.01 mg | Mass Protein per Eluate Fraction, Flow ([2]; 4° C.): 0.29 mg | Percent Eluted by Fraction, 1M NaCl [2, 6]: 26% | Percent Eluted by Fraction, 2% Ac. Acid [2, 6]: 35% | Percent Eluted by Fraction, 3M NaCl [2, 6]: 1% | Percent Eluted by Fraction, Flow [2, 6]: 38% | Mass Protein per Eluate Fraction, 1M NaCl ([2]; 20° C.): 0.08 mg | Mass Protein per Eluate Fraction, 2% Ac. Acid ([2]; 20° C.): 0.65 mg | Mass Protein per Eluate Fraction, 3M NaCl ([2]; 20° C.): 0.02 mg | Mass Protein per Eluate Fraction, Flow ([2]; 20° C.): 0.08 mg | Percent Eluted by Fraction, 1M NaCl [2, 7]: 9% | Percent Eluted by Fraction, 2% Ac. Acid [2, 7]: 80% | Percent Eluted by Fraction, 3M NaCl [2, 7]: 2% | Percent Eluted by Fraction, Flow [2, 7]: 9% | Mass Protein per Eluate Fraction, 1M NaCl ([2]; Table 10, 4° C.): 0.21 mg | Mass Protein per Eluate Fraction, 2% Acetic Acid ([2]; Table 10, 4° C.): 0.31 mg | Mass Protein per Eluate Fraction, 3M NaCl ([2]; Table 10, 4° C.): 0.03 mg | Mass Protein per Eluate Fraction, Flow ([2]; Table 10, 4° C.): 0.28 mg | Percent Eluted by Fraction, 1M NaCl [2, 8]: 26% | Percent Eluted by Fraction, 2% Acetic Acid [2, 8]: 38% | Percent Eluted by Fraction, 3M NaCl [2, 8]: 4% | Percent Eluted by Fraction, Flow [2, 8]: 35% | Mass Protein per Eluate Fraction, 1M NaCl ([2]; Table 10, 20° C.): 0.08 mg | Mass Protein per Eluate Fraction, 2% Acetic Acid ([2]; Table 10, 20° C.): 0.65 mg | Mass Protein per Eluate Fraction, 3M NaCl ([2]; Table 10, 20° C.): 0.02 mg | Mass Protein per Eluate Fraction, Flow ([2]; Table 10, 20° C.): 0.08 mg | Percent Eluted by Fraction, 1M NaCl [2, 9]: 9% | Percent Eluted by Fraction, 2% Acetic Acid [2, 9]: 80% | Percent Eluted by Fraction, 3M NaCl [2, 9]: 2% | Percent Eluted by Fraction, Flow [2, 9]: 9% | Mass A1PI per Eluate Fraction, 1M NaCl [3, 10]: 0.15 mg | Mass A1PI per Eluate Fraction, 2% Acetic Acid [3, 10]: 0.23 mg | Mass A1PI per Eluate Fraction, Flowthrough [3, 10]: 0.24 mg | Percent Eluted by Fraction, 1M NaCl [3, 11]: 24% | Percent Eluted by Fraction, 2% Acetic Acid [3, 11]: 37% | Percent Eluted by Fraction, Flowthrough [3, 11]: 39%

Reference: patent US5985836A, “Alpha-1 proteinase inhibitor binding peptides” (Bayer Corporation, priority 1998, dated 1999)
